{
  "source": "the DeepSol protein solubility set",
  "data": [
    {"assay": "soluble on expression in E. coli; label from the status in PepcDB or PDB records", "values": [
      {"sequence": "AAAAAAMTMMDMNFKYCHKIMKKHSKSFSYAFDLLPEDQRKAVWAIYAVCRKIDDSIDVYGDIQFLNQIKEDIQSIEKYPYEYHHFQSDRRIMMALQHVAQHKNIAFQSFYNLIDTVYKDQHFTMFETDAELFGYCYGVAGTVGEVLTPILSDHETHQTYDVARRLGESLQLINILRDVGEDFENERIYFSKQRLKQYEVDIAEVYQNGVNNHYIDLWEYYAAIAEKDFRDVMDQIKVFSIEAQPIIELAARIYIEILDEVRQANYTLHERVFVEKRKKAKLFHEINSKYHRI", "soluble on expression in E. coli": "soluble"},
      {"sequence": "MSAANPTRDDFASLLEESFTTGHSGEGQVVKGTITAIEKDMAIIDVGLKVEGRVPLKEFGVKGKDTTLKVGDTVEVYVERIENALGEAMLSREKARREESWVRLEEKFTKGERVEGVIFNQVKGGFTVDLDGAVAFLPRSQVDIRPIRDVSPLMHNPQPFEILKMDRRRGNIVVSRRTVLEESRAEQRSEIVQNLEEGQVVEGVVKNITDYGAFVDLGGIDGLLHVTDMAWRRVNHPTEILNIGQTVKVQIIRINQETHRISLGMKQLESDPWSEIGTKFPIGKKIKGTVTNITDYGAFVELEPGIEGLIHVSEMSWTKKNVHPGKILSTTQEVDVVVLEVDPAKRRISLGLKQTLENPWEAFARNHPVGSQVEGEVKNKTEFGLFIGLEGDVDGMVHLSDLDWTRPGEQVIEEYNRGDMVKAQVLDVDIEKERISLGIKQLARDTVGEAATSGELRKNAVVTCEVIGVKDGGLEVRLVDSGIETFIKRSDLSRDRDEQRPERFTVGQKVDARVIAFDKKTRKLQVSIKALEIAEEKEAVAQYGSTDSGASLGDILGAALKKQGNLEHHHHHH", "soluble on expression in E. coli": "soluble"},
      {"sequence": "MGSDKIHHHHHHAQTEVLTGVTRGKDYGVVYALPKTQIEIEIKANKVNYKPGEFSKYADRYLRLTNVSAEPEEYWELNSVKVKPVGVPNSEATYFVKLKDKTVAPLMELTEEGLIKSINVPYSSNNAKNAANNAVAPQRKANPRDFLTEEILMASSTAKMAELVAKEIYNIRESKNALLRGQADNMPSDGAQLKIMLDNLNLQEEAMTEMFSGVRNKEEKTFTVRLTPDKEFDNEVAFRFSKKLGIVANNDLAGTPFYISLKDLKTVKIPQEDGKKKKEMEGIAYNVPGQAMVTLTDGKKKLYEGEIPVTQFGIIEYLAPVLFNKNSTIKVYFDPVTGGLLKVDREESK", "soluble on expression in E. coli": "not soluble"},
      {"sequence": "MARTNLQFANLELFVDQLTGAMTFTRTSLLTAAQGALVTRFAEIDGRVKKNLDRVLAAFRQHRLGVHHFSSMTGYGHGDLGREVLDRVFAQVMGAEAALVRVQFVSGTHAIATALFGVLRPGDELISLAGPPYDTLEEVIGLRGQGQGSLKDFGIHYRELPLLASGEPDWGAIATCVQPQTRMVLIQRSCGYTWRPSLSLEDIGKMIQLIKSQNPDVVCFVDNCYGEFVETQEPPHVGADLIAGSLIKNPGGTIATAGGYLAGRADLIEQASYRLTAPGIGHEGGATFDQHRLLFQGLFLAPQMVGEALKCAHLLAYVFDELGYPVNPAPLSRRRDVIQAVQLGSPEKLIAFCRILQRYSPVGSYLDPVPAPMPGYADDLVMAGGTFIDGSTSELSADGPLRPPYIVFCQGGTHHTHMALILEALLEAQVFLEHHHHHH", "soluble on expression in E. coli": "not soluble"},
      {"sequence": "MSLKVVSVDTLCCDAGWRNYHFVKLTTDEGIVGWSEFDEGFGSPGVTAVIEQLGKRLVGASVMEHERFFAEAYCLTRPATGGVVSEGIGAIENALLDAKAKTLNVPCYELLGGKLRDRVPVYWSHCPTWRINHPKFFGPPVTDLDGVKRTAEEARERQFRAIKTNIFIHDDGPLHAWRPGFAVPFQPALNVDRKVLRNLRAHLEALRDGAGPDVEILLDLNFNAKPEGYLKILRELADFDLFWVEIDSYSPQGLAYVRNHSPHPISSCETLFGIREFKPFFDANAVDVAIVDTIWNGVWQSMKIAAFADAHDINVAPHNFYGHLCTMINANFAAAVPNLRIMETDIDRLAWEDELFTHAPEYQNGELIIPDRPGWGTDPVEEAILAHPPKVMGGLLQYKRSEGHHHHHH", "soluble on expression in E. coli": "soluble"},
      {"sequence": "MGSDKIHHHHHHSGEKKESASEKGVETVLPDTKNEVSVMTLKKQIFNHELVSNGKISARGMADLRFESGEVIAHIWVKNGDRVRKGQKLAELDKFKLDNQLSQSEDALKKSELELRDVLISQGYPADDISQVPEETMKLAKVKSGYDQSKSQYEMSKYNAEHATLTAPFDGVVANLFSKPYNLASTSDVFCTVIDMQGMEVDFTVLESELPLIKNGDKVVIKPYSDAATVHEGSISEINPLVDDKGMVKVKARVNGAGKLFSGMNVRVSVHRSLGEQLVIPKSAVVLRSGKQVVFTLKDGKMAQWNYIHTALENADSYSVADGLTEGDTVIVSGNINLAHEAPVTIIE", "soluble on expression in E. coli": "not soluble"},
      {"sequence": "QIAPLFWLENTIEKVEGMRPYTPLEMAGREVYIREGCYVCHSQMIRPMRDEVERYGHYSLAAESMYDHPFQWGSKRTGPDLARVGGRYSDDWHVDHMRDPQSVVPESVMPKYGYLERTMIDGKYIGDLMAANAIVGVPYTDEMIEAAQADFAAQADPDSDYDGLLERYGDKVNVRNFDGQPGVSEADALIAYLQMLGT", "soluble on expression in E. coli": "not soluble"},
      {"sequence": "MKNRYAKVSNMAKNASSPSRRFMKLAGMTASIATKTVSNSIRNLTADDEQKLASKTKLFQDIGIQIADTLGEMKGAVMKVGQIASQYKDIFPPEVAKAIAKLQRQAPAVPFSAIQQQVEKELGKPLLQAFQSFDQQPFAAASIGQVHRAVLPDGQEVVVKVQYPGVDEACESDLKQVRLALRLMGVIKIDKKLQDQLFTEIQDSLSDELNYEIEAQNLEVFKTFHQQLDNKIIIPTVYKNYSSRRILTLSLERGDSIETASTWPLETRNQIGRRLIRALGQEIFYLKRFHCDPHPGNFAFREDGTVIIYDFGGVKTLSSDIVSHFKHLVQAARQQDITAIENHLDALHSLSDKGLFPEELYLQWLEVLLRPLTTHYDFAENSAHHDGVTLVKKSLKYWDVFKPSPDTLMVNRTISGHYWNLIHLKVHDDLSDLFEELVPTTIN", "soluble on expression in E. coli": "not soluble"},
      {"sequence": "MGSDKIHHHHHHMATELPSLKGLQAFEAAARYRSVTLASNELNVTPGAVSLQIRELEARLGVQLFFRKPRSIQLTREGERYYGALRTAFRMMREATAELTARSEITVLTLSCTPTFAVQWLMPRLPSFQQQHPHVDVRISVTNRLVDFSRDDVDLAVRHGFGRYEGLESIRFIDDSTLPVCAPQLLEKYGPLREAGDLKSVPLLHDENRNEWRRWLEAAGASEVDASGGTVFIDSNGALDAAKAGHGIALTRRSLVSRELVEGALIAPFGTDMASTLAYFLVYPRRMLDNPDLVTLIDWMLSQAGSTEAGSL", "soluble on expression in E. coli": "not soluble"},
      {"sequence": "MSSHFVDWLIAHGYEQDAFDRPDVGPAGSFGGKTRSGDPVEKEPVIFIHGSGDTALFTQQPLATGFSRSIQYFLEQNYTEAELYATTWGDTWGSGSMLDTYSTIHTCGNLIYLRRFLEAVIGYTGAKKVDIIAHSVGVPLMRKVVKGGTLIGTDGNCTLGPPLGAKVDTFLGIAGPNFGLCVCQLAQTVPAWCNALDGLYPGYTCQDQLWCGYTSGSCKQENYSNLLQKTNDDPNREGDHVYAMWSDVDEVLLNRGMVWGKPTARIPGMNGRWISDRNGHVAMKDLTELRQFEAIVHHSI", "soluble on expression in E. coli": "not soluble"},
      {"sequence": "WYGSPQFDGKYVHWDHPLLPHWDPKVASSYSTGRHQPPEDIGANFYPALGPYSSRDPAVLEEHMRQLRMAAVGVLAVSWYPRSMKDDNGEEIDSLLPLILDAADKYQLKVLYNLYVFKNVICINKYV", "soluble on expression in E. coli": "soluble"},
      {"sequence": "MKALLEWIRKDMKPALGVTEPAAIALACAAARAMTEEPAECLLVRENSGIYKNAFTCGIPGTDKIGNEFAAALGCVAGDKEKGLLVLEEISDADVEAAKRFIEDGKVKVEVSQISSELFIYACVRTEHDCCEAEIRGQHTNICRLVKNGRVLLEKKTRELEETARPGSLTDYTMEEFFRFAKETPVEDLYFIREAYRVNLELAKAALTSERCTLTKSLLAFNGGTDVSGDLRATARFFAGAASEARVLGLDKPAMSITGSGNHGIICTMPLYAMYRVEHHSEESLLRATVLSYLITMYMKEYSGKLSAFCGCAVAAGTGMACAMTFMRGGGFEEVLATLNNMAASIVGMICTGGNHACCMKVLAAVDTAVTSTELALSGKCISPEHGVADVCPEKTMQNIGLIAYPGMTETERVILEIMQNKKGGAKGHEETD", "soluble on expression in E. coli": "not soluble"},
      {"sequence": "MSLAVERLFGTNGIRGIPNDDMSPDFAMSVGKAIGTYVSGEIAFGTDTRLTGDMIKNAVIAGILSTGISVIDLGVLPTPAIQYYSKKHGIYAVVITASHNPPQYNGIKVIDKDGTELERPGEEKIEEIFYSKAFRVVKWENIGRIRQVSDAIDIYINGVISNVDSDNIKSHAFKVLADAGNGAAYYSTPKLLEKLGCSITTLNANPDGRFTARNAEPVPENLVNLISLMKSGRFDLGIAHDGDADRAVFIDEKGNFIDGDRMLALITKYIAKAGDVVVTPVSSSDTIADICNAIGAKLIRTKVGAPIVARAMIDNGATIGGEENGGVIYGKHQYCRDGAMTVSLVLNLMASTNKKLSELISELPVYYLIKKKVERRVDWPSLARELKKGERVDETDGIKILKDDGWILIRPSGTEKILRIYAHSSDFELANKYCEQYIRKVNDIQDKLSEGHHHHHH", "soluble on expression in E. coli": "not soluble"},
      {"sequence": "PDLTAALRDVRQQYESVAAKNLQEAEEWYKSKFADLSEAANRNNDALRQAKQESTEYRRQVQSLTCEVDALK", "soluble on expression in E. coli": "soluble"},
      {"sequence": "HKEFAVTMRPTEASERCHLRGSYTLRAGESALELWGGPEPGTQLYDWPYRFLRRFGRDKVTFSFEAGRRCVSGEGNFEFETRQGNEIFLALEEAISAQKN", "soluble on expression in E. coli": "soluble"},
      {"sequence": "ARPAFVNKLWSMVNDKSNEKFIHWSTSGESIVVPNRERFVQEVLPKYFKHSNFASFVRQLNMYGWHKVQDVKSGSMLSNNDSRWEFENERHA", "soluble on expression in E. coli": "soluble"},
      {"sequence": "MSLTLIYGHRGAKGEAPENTLASFQRCLEHGVNRCELDLHLSRDGELMVIHDPTLKRTTGRRGKVAEHDAATLATYDARKGGPGWVRPTPIPRLEELFEKCPFEHWQLEVKSASRERAARTVTRIRELTERFGNRDKVTVTSGSRTVLKALNELTPELSRGLVAEYAWLDPLKVAQHYGCALLALNWTLCTPERLLKAQRQGLHVSVWTVNEPALMRRLADFGVDSLITDFPGLASATLGNEGHHHHHH", "soluble on expression in E. coli": "not soluble"},
      {"sequence": "MSLGKTLLVDSKGLILDGKHIIPVMGEIHYSRVPESEWRREIRKMKAGGINIISTYIFWIHHEPEEGKWNWSGNHNLRRFVRICAEENVMLVLRLGPFCHGEVYQGGIPSWVHEKAGQNPKYKIRARTPGFLEDCTELYNTIFAQVNGLLWKDGGPVVGVQIENESRGPWDYLEALKNIAVKAGFDVPFYTRTGWPALRGKEVFGQLLPLYGDYADGFWDRKLEDMPGSYADAFIMRDKRMSSAIATETFSKEELSEDSPSLSSKLSYPYFTCELGGGMMPAYHRRININGKELKPLVICKLGSGSNLPGYYMYHGGTNPYNPLHTMGETQSSPGTNHNDLPHMTYDFQAPLGEVGQVFETPFHEGRFIHQMLTDWGSELLQMNVDSLSRHYARRGAFEFYNDYVRIKNESGTSHVTFKDYRTEGATIDWTTVEPFCKVDGLIYFIEIRGKKPQISVDGKVYTCKLNKEGHHHHHH", "soluble on expression in E. coli": "not soluble"},
      {"sequence": "MVLKRKGLLIILDGLGDRPIKELNGLTPLEYANTPNMDKLAEIGILGQQDPIKPGQPAGSDTAHLSIFGYDPYETYRGRGFFEALGVGLDLSKDDLAFRVNFATLENGIITDRRAGRISTEEAHELARAIQEEVDIGVDFIFKGATGHRAVLVLKGMSRGYKVGDNDPHEAGKPPLKFSYEDEDSKKVAEILEEFVKKAQEVLEKHPINERRRKEGKPIANYLLIRGAGTYPNIPMKFTEQWKVKAAGVIAVALVKGVARAVGFDVYTPEGATGEYNTNEMAKAKKAVELLKDYDFVFLHFKPTDAAGHDNKPKLKAELIERADRMIGYILDHVDLEEVVIAITGDHSTPCEVMNHSGDPVPLLIAGGGVRTDDTKRFGEREAMKGGLGRIRGHDIVPIMMDLMNRSEKFGA", "soluble on expression in E. coli": "soluble"}
    ]}
  ]
}
